Laboratory results: patent publication US20250288652A1, “BACTERIOPHAGE LYSINE, CHIMERA THEREOF AND APPLICATION THEREOF” (priority 2021, published 2025)
Where “and” joins values, the source holds several entries; their conditions need not be identical. Equal values may be shown once.

How the values were obtained:
[1] = test system: biofilm-associated P. acnes strain 10; assay: Killing of biofilm-associated P. acnes (CFU count); assay type: cell-based, Propionibacterium acnes; details: strain 10 biofilm, treated overnight at 25° C. under anaerobic conditions
Procedure: Strain 10 with an OD600 of 1.0 was added to a 96-well polystyrene plate to inoculate the biofilm overnight in an anaerobic gas mixture. The supernatant was removed and the wells were gently rinsed with 0.9% NaCl. Biofilm formation medium (RCM+5% glucose) was added to allow biofilm growth overnight in the anaerobic gas mixture. The medium was removed and the wells were gently rinsed with 0.9% NaCl. Biofilms were then treated with buffer or PACL403 overnight at 25° C. under anaerobic conditions. The buffer or PACL403 was removed and the wells were rinsed with 0.9% NaCl. Resuspend in 0.9% NaCl, plate on RCM agar and count biofilm-associated CFU.

[2] = test system: Propionibacterium acnes; assay: MIC of selected lysin after single-step purification, Example 8; assay type: cell-based; details: single-step purified lysin
Procedure: Express PACL 10, 390, 391, 392, 403 and 404 according to the method of Examples 1-4, and perform the following single-step purification: put Escherichia coli BL21 (DE3) containing each recombinant expression plasmid in the self-induction medium incubate at 37° C., 300 rpm for 3 hours, then at 18° C., 300 rpm for 16-18 hours. Cells were collected by centrifugation and lysed by homogenizatoin under high pressure. Clarified lysate from 1 L of E. coli culture medium expressing the protein of interest was loaded onto a 26 mm/200 mm column containing 70 mL of purification resin. The lysin was purified according to the conditions in Table 8-1, and the purity determination of the lyase after single-step purification is shown in FIG. 5. These lysin are used to determine the minimal inhibitory concentration (MIC).
The minimal inhibitory concentration (MIC) determination method is as follows. Propionibacterium acnes is streaked on Fortified Clostridium Agar (Fortified Clostridium Medium RCM with 1.5% agar, RCM was prepared according to the revised recipe, per liter—10 g acid hydrolyzed casein, 10 g beef extract, 3 g yeast extract, 5 g D—glucose, 5 g sodium chloride, 3 g sodium acetate, 0.5 g L-cysteine hydrochloride). Plates were incubated anaerobically at 37° C. for 72 hours. The inoculum for MIC determination was first prepared by resuspending single clones from RCA in 0.9% saline to an OD600 of 0.05, corresponding to 10^7 colony-forming units per milliliter (cfu/mL). The suspension was diluted 20-fold in RCM to an inoculum of 5*10^5 cfu/mL. Two-fold serial dilutions of each lyase were prepared in 0.9% saline and added not to exceed one-tenth of the total culture volume. Cultures were grown anaerobically at 37° C. for 48-72 hours. The MIC is the lowest concentration of lyase at which no growth of P. acnes can be observed with the naked eye.

[3] = test system: Propionibacterium acnes; assay: Minimum inhibitory concentration (MIC) determination, Example 6; assay type: cell-based; details: listed as #10
Procedure: (§1) The minimal inhibitory concentration (MIC) determination method is as follows. First prepare a colony suspension in 0.9% saline to an OD600 of 0.05 to prepare an inoculum, which corresponds to 10^7 colony-forming units per mL (cfu/mL). The suspension was diluted 20 times in agar-free enhanced Clostridium medium (RCM) to an inoculum of 5*10^5 cfu/mL. Prepare 2-fold serial dilutions of PACL10 or vancomycin with 0.9% saline and add no more than one-tenth of the total culture. Cultures were grown anaerobically at 37° C. for 3 days. The MIC is the lowest concentration of PACL10 or vancomycin at which no growth of P. acnes can be observed with the naked eye. The minimum bactericidal concentration (MBC) was determined by subculturing the above cultures on enhanced Clostridium agar (RCA) plates containing 0.1% Tween-80. MBC is the lowest concentration of PACL10 or vancomycin at which no P. acnes colonies are seen on the enhanced Clostridium agar (RCA) plate.

[4] = test system: P. acnes 34A strain; assay: Time sterilization (time killing) test; assay type: cell-based, Propionibacterium acnes; details: 50 mM sodium phosphate pH 6.0
Procedure: The time sterilization test method is as follows. Resuspend the P. acnes 34A strain colony in 0.9% saline to an OD600 of 0.05, which corresponds to 10^7 cfu/mL. The suspension was diluted 10-fold in 50 mM sodium phosphate (pH 6.0) to ˜10^6 cfu/mL. Add 0, 0.5×, 1×, 2× MIC of two-fold serial dilutions of PACL10 to the 34A strain, respectively. Ten-fold serial dilutions (0, 1, 2, 3 log) from the assay were plated on enhanced Clostridium agar (RCA) at each time point and incubated anaerobically at 37° C. for 3 days.

[5] = test system: Propionibacterium acnes; assay: Minimum bactericidal concentration (MBC) determination, Example 6; assay type: cell-based; details: listed as #10
Procedure: as §1

B1: PACL403: chimeric lysin, amino acid sequence SEQ ID NO: 271 (protein)
chain: MTFIQAKHHGGHNNPPVTRLVIHATCPDVGYPSASRAGRAVSTAHYFQETTRPASAHYICDISTTVQCLSEETVGYHAPPNSHSIGIEICADGGSHASFSNPAHAYTREQWLSPQVWPAVERAAMLARGICQRHNIPIRRLSIADVKAGKRGICGHNEVSEAFHQSDHDDPGPYFPWDGFIALVNGHSAPSRQEELTVSDGGEVRTPGQQDTKPSVPTPSLTEIGDQDMNGCYYNLNSKTRTYLIFDSRSGFYHEFSQGNGNGPMSPDYVNPIAKGWDTGSWPAISPGHAKVLKAALDKVRKGI
modifications: PACL403
bactericidal activity against biofilm-associated P. acnes [1]: killed biofilm-associated P. acnes
MIC of selected lyases relative to Propionibacterium acnes ([2]; clade IA1, strain 1): 16 µg/mL
MIC of selected lyases relative to Propionibacterium acnes ([2]; clade IA1, strain 5): 16 µg/mL
MIC of selected lyases relative to Propionibacterium acnes ([2]; clade IA1, strain 7): 16 µg/mL
MIC of selected lyases relative to Propionibacterium acnes ([2]; clade IA2, strain 10): 8 µg/mL
MIC of selected lyases relative to Propionibacterium acnes ([2]; clade IA2, strain 17): 8 µg/mL
MIC of selected lyases relative to Propionibacterium acnes ([2]; clade IA2, strain 33): 8 µg/mL
MIC of selected lyases relative to Propionibacterium acnes ([2]; clade II, strain 34): 16 µg/mL

B2: PACL10: phage lysin, amino acid sequence SEQ ID NO: 10; 29.4 kDa (protein)
chain: MTFIQAAHHSSGSNLPPTRVVIHATCPELGFPRASAKGRAVSTARYFQSAISGGSAHYVVDVGETVQCLAEDVIAWHAPPNSRSLGIEICADGGSATSFKNPNVRYSRAQWLSPQVWPAVLRAAALTRQMCQKYGIPVTKLSASDLKAGKKGICGHVDVSNAWHQSDHDDPGPDFPWAEFMAAVKGGATNPDELELTVSQFSDLTKRLQGMQEQTHHDLGVVQTKLATMDTVKNPRTGAKWSLKDAIWSIWYYVLENRDRIAALEKKVK
modifications: PACL10
notes: 29.4 kDa
MIC ([3]; clade IA1, strain 1): 6.4 μg/mL and 0.218 μM
MIC ([3]; clade IA1, strain 5): 12.8 μg/mL and 0.436 μM
MIC ([3]; clade IA1, strain 7): 6.4 μg/mL and 0.218 μM
MIC ([3]; clade IA1, strain 15): 6.4 μg/mL and 0.218 μM
MIC ([3]; clade IA1, strain 27): 12.8 μg/mL and 0.436 μM
MIC ([3]; clade IA2, strain 10): 6.4 μg/mL and 0.218 μM
MIC ([3]; clade IA2, strain 14): 6.4 μg/mL and 0.218 μM
MIC ([3]; clade IA2, strain 17): 6.4 μg/mL and 0.218 μM
MIC ([3]; clade IA2, strain 31): 12.8 μg/mL and 0.436 μM
MIC ([3]; clade IA2, strain 33A): 12.8 μg/mL and 0.436 μM
MIC ([3]; clade IB, strain 13): 12.8 μg/mL and 0.436 μM
MIC ([3]; clade II, strain 34A): 6.4 μg/mL and 0.218 μM
time for cfu/mL to drop below the detection limit ([4]; at 2× MIC 12.8 μg/mL): ≤ 2 h
time for cfu/mL to drop below the detection limit ([4]; at MIC 6.4 μg/mL): ≤ 3 h
MIC of selected lyases relative to Propionibacterium acnes ([2]; clade IA1, strain 1): 8 µg/mL
MIC of selected lyases relative to Propionibacterium acnes ([2]; clade IA1, strain 5): 8 µg/mL
MIC of selected lyases relative to Propionibacterium acnes ([2]; clade IA1, strain 7): 8 µg/mL
MIC of selected lyases relative to Propionibacterium acnes ([2]; clade IA2, strain 10): 8 µg/mL
MIC of selected lyases relative to Propionibacterium acnes ([2]; clade IA2, strain 17): 8 µg/mL
MIC of selected lyases relative to Propionibacterium acnes ([2]; clade IA2, strain 33): 8 µg/mL
MIC of selected lyases relative to Propionibacterium acnes ([2]; clade II, strain 34): 8 µg/mL
MBC ([5]; clade IA1, strain 1): 25.6 μg/mL and 0.871 μM
MBC ([5]; clade IA1, strain 5): 12.8 μg/mL and 0.436 μM
MBC ([5]; clade IA1, strain 7): 12.8 μg/mL and 0.436 μM
MBC ([5]; clade IA1, strain 15): 25.6 μg/mL and 0.871 μM
MBC ([5]; clade IA1, strain 27): >25.6 μg/mL and >0.871 μM
MBC ([5]; clade IA2, strain 10): 12.8 μg/mL and 0.436 μM
MBC ([5]; clade IA2, strain 14): >25.6 μg/mL and >0.871 μM
MBC ([5]; clade IA2, strain 17): 25.6 μg/mL and 0.871 μM
MBC ([5]; clade IA2, strain 31): >25.6 μg/mL and >0.871 μM
MBC ([5]; clade IA2, strain 33A): >25.6 μg/mL and >0.871 μM
MBC ([5]; clade IB, strain 13): 25.6 μg/mL and 0.871 μM
MBC ([5]; clade II, strain 34A): 6.4 μg/mL and 0.218 μM
